Results from US20250304677A1 (VIB VZW, published 2025).

B1: VHH 3MFR60 (family 10) (VHH)
VHH: QVQLQESGGGLVQAGGSLRVSCAASGIIFSMNGMGWFRQAPGKQRELVASITSGGSTKYADSVKGRFTISRDNAKNTVYLQMNSLKPEDTAVYYCNIQFGSRWSTYWGQGTQVTVSS
B2: VHH 2HFO19 (family 1) (VHH)
VHH: QVQLQESGGGLVQPGGSLRVSCAASGFPFSTVYMSWVRQAPGKGLEWVSGINNDGGVIDYADSVKGRFTISRDNAKNTLYLQLNSLKPEDTALYFCARGRSFVATLSSSLRGQGTQVTVSS
notes: also called Nb19
B3: VHH 2HFO42 (family 3) (VHH)
VHH: QVQLQESGGGLVQAGGSLRLSCAASGSGFSGMIMGWYRQVPGKQRELVATVTSHGTTNYADSVKGRFTISRDNAKNTVLLQMNSLKPEDTAVYYCNAHFPGIYWGKGTQVTVSS
notes: also called 2HF042; Nb42

Legend:
[1] = biological target: human FOLR1/2 chimera 2 (human, UniProt P15328 25-234); assay: flow cytometry, transfected HEK293T cells
human FOLR1/2 chimera 2, sequence (P15328 other isoform, or with tags, fused parts or gaps mutant limits assumed): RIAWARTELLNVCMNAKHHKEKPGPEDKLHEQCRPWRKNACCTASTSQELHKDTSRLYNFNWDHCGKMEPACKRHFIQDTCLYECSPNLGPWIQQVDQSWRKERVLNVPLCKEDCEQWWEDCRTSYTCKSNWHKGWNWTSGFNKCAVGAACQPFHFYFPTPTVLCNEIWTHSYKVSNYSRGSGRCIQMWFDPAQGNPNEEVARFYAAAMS
Procedure: (§1) Chimera 1 SEQ ID No. 67) and 7 ^{∘}Ch7; SEQ ID No. 73) also contain an additional residue change at a separate location. […] HEK293T cells were transfected with hFOLR1, hFOLR2, one of the hFOLR1/2 chimeric constructs ^{∘}FIG. 2B) or single residue mutants ^{∘}FIG. 2C). Binding of VHHs 2HFO19, 2HFO42, 3MFR60, and a mouse anti-FOLR1 monoclonal antibody ^{∘}mAb) was detected using a mouse anti-His tag antibody for the VHHs followed by an anti-mouse-phycoerythrin antibody. All VHHs were tested at a concentration of 200 nM and untransfected cells were used as a negative control. The colors used for the VHHs represent the different CDR3 families; blue: family 1, green: family 3, grey: family 10.
(§2) To identify the exact region in which the VHHs bind to FRα, epitope mapping experiments were performed. Since the VHHs are able to bind human FRα, but not FRβ, we generated seven human FOLR1/2 chimeric constructs where regions of human FOLR1 were replaced by the corresponding human FOLR2 ^{∘}FRβ) regions ^{∘}FIG. 2A): chimera 1 SEQ ID No. 67), chimera 2 ^{∘}SEQ ID No. 68), chimera 3 ^{∘}SEQ ID No. 69), chimera 4 ^{∘}SEQ ID No. 70), chimera 5 ^{∘}SEQ ID No. 71), chimera 6 ^{∘}SEQ ID No. 72) and chimera 7 ^{∘}SEQ ID No. 73). Three additional chimera 1 constructs were made: chimera 1a ^{∘}replacing fragment 31-40; SEQ ID No. 74), chimera 1b ^{∘}replacing fragment 41-50; SEQ ID No. 75) and chimera 1c ^{∘}replacing fragment 51-64; SEQ ID NO. 76). The constructs were transiently transfected into HEK293T cells and dose-dependent binding of the VHHs to the wild-types FRα and FRβ ^{∘}WTs) or the chimeric constructs was assessed via flow cytometry via detection of the tag ^{∘}FIG. 2B). […] Different anti-FRα VHHs were able to bind to cell-expressed FRα-FRβ chimeras to a similar level as WT FRα, with the exception of chimera 4 ^{∘}SEQ ID No. 70) where the binding was completely abolished for all VHHs.

[2] = biological target: human FOLR1/2 chimera 3 (human, UniProt P15328 25-234); assay: flow cytometry, transfected HEK293T cells
human FOLR1/2 chimera 3, sequence (P15328 other isoform, or with tags, fused parts or gaps mutant limits assumed): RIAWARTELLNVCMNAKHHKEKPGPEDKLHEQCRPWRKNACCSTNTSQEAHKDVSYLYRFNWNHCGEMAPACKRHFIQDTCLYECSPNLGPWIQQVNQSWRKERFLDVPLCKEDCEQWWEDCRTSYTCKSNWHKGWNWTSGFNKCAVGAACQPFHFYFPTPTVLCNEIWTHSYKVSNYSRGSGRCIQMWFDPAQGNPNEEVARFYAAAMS
Procedure: as §1, §2

[3] = biological target: human FOLR1/2 chimera 5 (human, UniProt P15328 25-234); assay: flow cytometry, transfected HEK293T cells
human FOLR1/2 chimera 5, sequence (P15328 other isoform, or with tags, fused parts or gaps mutant limits assumed): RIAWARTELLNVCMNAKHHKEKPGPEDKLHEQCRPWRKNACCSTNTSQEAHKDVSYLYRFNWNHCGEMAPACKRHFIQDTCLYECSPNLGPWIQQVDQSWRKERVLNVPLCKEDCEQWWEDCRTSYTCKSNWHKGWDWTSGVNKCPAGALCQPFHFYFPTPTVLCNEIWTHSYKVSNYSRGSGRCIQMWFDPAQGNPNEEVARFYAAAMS
Procedure: as §1, §2

[4] = biological target: human FOLR1/2 chimera 6 (human, UniProt P15328 25-234); assay: flow cytometry, transfected HEK293T cells
human FOLR1/2 chimera 6, sequence (P15328 other isoform, or with tags, fused parts or gaps mutant limits assumed): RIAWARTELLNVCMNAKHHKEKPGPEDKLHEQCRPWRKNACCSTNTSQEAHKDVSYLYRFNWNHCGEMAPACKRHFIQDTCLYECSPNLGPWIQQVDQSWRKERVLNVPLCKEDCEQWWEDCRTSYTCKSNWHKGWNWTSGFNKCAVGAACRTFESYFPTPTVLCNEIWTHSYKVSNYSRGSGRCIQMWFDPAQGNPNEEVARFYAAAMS
Procedure: as §1, §2

[5] = biological target: T1, human FOLR1/2 chimera 7 (human, UniProt P15328 25-234); assay: flow cytometry, transfected HEK293T cells
T1 construct: also called Ch7
T1 sequence (P15328 other isoform, or with tags, fused parts or gaps mutant limits assumed): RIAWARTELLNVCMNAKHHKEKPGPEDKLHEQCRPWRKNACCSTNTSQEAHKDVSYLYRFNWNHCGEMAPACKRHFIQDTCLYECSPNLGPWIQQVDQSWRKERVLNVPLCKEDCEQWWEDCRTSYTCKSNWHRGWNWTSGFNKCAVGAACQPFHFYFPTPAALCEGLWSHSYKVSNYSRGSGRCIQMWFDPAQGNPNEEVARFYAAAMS
Procedure: as §1, §2

[6] = biological target: T2, human FOLR1/2 chimera 1 (human, UniProt P15328 25-234); assay: flow cytometry, transfected HEK293T cells
T2 construct: on transfected HEK293T cells
T2 sequence (P15328 other isoform, or with tags, fused parts or gaps mutant limits assumed): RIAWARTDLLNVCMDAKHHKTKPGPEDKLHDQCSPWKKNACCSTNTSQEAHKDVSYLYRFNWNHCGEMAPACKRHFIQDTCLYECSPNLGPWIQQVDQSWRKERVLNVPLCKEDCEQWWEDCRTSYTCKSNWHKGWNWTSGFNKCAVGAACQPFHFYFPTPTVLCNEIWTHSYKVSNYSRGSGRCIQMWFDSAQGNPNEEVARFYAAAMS
Procedure: as §1, §2

[7] = biological target: T3, human FOLR1/2 chimera 1a (replacing fragment 31-40) (human, UniProt P15328 25-234); assay: flow cytometry, transfected HEK293T cells
T3 construct: Transiently expressed on HEK293T cells
T3 sequence (P15328 other isoform, or with tags, fused parts or gaps mutant limits assumed): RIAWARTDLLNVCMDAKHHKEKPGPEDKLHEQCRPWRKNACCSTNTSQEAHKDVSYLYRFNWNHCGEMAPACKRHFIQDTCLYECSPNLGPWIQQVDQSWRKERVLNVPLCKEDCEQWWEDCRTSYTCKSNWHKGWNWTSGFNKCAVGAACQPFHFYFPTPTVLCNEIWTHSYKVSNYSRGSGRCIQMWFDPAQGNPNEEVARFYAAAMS
Procedure: as §1, §2

[8] = biological target: T4, human FOLR1/2 chimera 1b (replacing fragment 41-50) (human, UniProt P15328 25-234); assay: flow cytometry, transfected HEK293T cells
T4 construct: Transiently expressed on HEK293T cells
T4 sequence (P15328 other isoform, or with tags, fused parts or gaps mutant limits assumed): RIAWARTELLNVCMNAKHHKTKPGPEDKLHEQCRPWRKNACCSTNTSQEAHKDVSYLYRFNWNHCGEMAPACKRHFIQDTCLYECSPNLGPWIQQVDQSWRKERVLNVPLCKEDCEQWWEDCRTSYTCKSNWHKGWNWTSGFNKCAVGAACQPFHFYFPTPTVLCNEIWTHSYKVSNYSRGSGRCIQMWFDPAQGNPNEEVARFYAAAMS
Procedure: as §1, §2

[9] = biological target: T5, human folate receptor alpha (hFRα), recombinant protein (human, UniProt P15328 25-233); assay: BLI, periplasmic extract, FRα on AR2G biosensors
T5 construct: Bought recombinant proteins (His-tagged, or biotinylated via Avi-tag, e.g. AcroBiosystems FO1-H82E2, F01-H52H1); also called hFOLR1; huFOLR1
T5 sequence (P15328 25-233 limits assumed): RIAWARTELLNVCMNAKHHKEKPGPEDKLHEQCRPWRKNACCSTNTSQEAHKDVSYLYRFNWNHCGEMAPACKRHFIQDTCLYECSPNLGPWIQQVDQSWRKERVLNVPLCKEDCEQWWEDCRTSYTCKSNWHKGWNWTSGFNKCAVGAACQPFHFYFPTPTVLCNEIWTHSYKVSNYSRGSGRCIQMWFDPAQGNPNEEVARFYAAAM
Procedure: (§3) After panning of core76/77 on human and mouse folate receptor alpha ^{∘}FRα), […] were randomly selected from the second and third rounds and analyzed by ELISA on both human and mouse FRα for the presence of FRα-specific VHHs in their periplasmic extracts ^{∘}PE). This led to the identification of 98 hits. For these 98 hits, the off-rate ^{∘}koff) in the PE was determined by biolayer interferometry ^{∘}BLI) on both mouse and human FRα that was directly immobilized onto AR2G biosensors. The off-rates were calculated using a 1:1 binding model. […] Abbreviations: SE: standard error.

[10] = biological target: T6, mouse folate receptor alpha (mFRα), recombinant protein (mouse, UniProt P35846 25-232); assay: BLI, periplasmic extract, FRα on AR2G biosensors
T6 construct: Bought recombinant proteins (e.g. biotinylated, Acro Biosystems FO1-M82E9); also called mFOLR1; Ms FOLR1
T6 sequence (P35846 25-232 limits assumed): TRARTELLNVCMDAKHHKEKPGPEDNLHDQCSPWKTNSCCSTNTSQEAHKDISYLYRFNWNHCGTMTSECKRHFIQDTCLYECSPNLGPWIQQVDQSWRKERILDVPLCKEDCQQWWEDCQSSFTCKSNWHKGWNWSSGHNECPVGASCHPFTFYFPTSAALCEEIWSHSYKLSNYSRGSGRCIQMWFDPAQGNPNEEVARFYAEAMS
Procedure: as §3

[11] = biological target: T6, mouse folate receptor alpha (mFRα), …; assay: BLI tandem binning on mouse FRα; competitor (1st association) 2HFO19
Excerpt: VHHs that share high sequence identity in the CDR3 region, a VHH family, are derived from the same B-cell lineage and diverged from each other due to somatic hypermutation or affinity maturation. Typically, VHHs from the same family recognize the same epitope on the target, but may differ in other characteristics ^{∘}De Genst et al 2006 PNAS 103:4586-4591; De Gents et al 2005 J Biol Chem 280:14114-14121). To study whether the VHHs from the different families bound different epitopes, epitope binning was performed using a tandem binding approach in BLI. One VHH from each family was allowed to bind to mouse FRα on the biosensor, followed by binding of the second VHH ^{∘}Table 4).
Competition between VHHs from different complementarity determining region ^{∘}CDR) 3 families was assessed in a tandem binding assay using biolayer interferometry ^{∘}BLI). Streptavidin biosensors were loaded with biotinylated mouse FRα ^{∘}Acro Biosystems, Cat.nr. FO1-M82E9), followed by binding of anti-FRα VHHs ^{∘}VHH in first association). The biosensors were then transferred to a solution containing a second VHH mixed 1:1 with the first VHH ^{∘}VHH in second association). Using the FortéBio Data Analysis Software the absolute additional binding signal for the second association on top of the first association was calculated. The data were normalized per VHH in first association using the following formula: ^{∘}signal-self)/^{∘}maximum-self) with self being the value of the VHH in first association in combination with the same VHH in second association.

Binder | binding result [1] | binding result [2] | binding result [3] | binding result [4] | binding result [5] | binding result [6] | binding result [7] | binding result [8] | koff [9] [s⁻¹] | koff [10] [s⁻¹] | normalized additional binding in 2nd association [11] [%]
B1 | binds | binds | binds | binds | binds | binds | binds | binds | 0.0449 | 0.00287 | 6
B2 | binds | binds | binds | binds | binds | binds | binds | binds | 0.013 | 0.00279 | 0
B3 | binds | binds | binds | binds | binds | binds | binds | binds | 0.0266 | 0.00881 | 1
